Measurements published in patent publication US20200040059A1.

Biological target: T1, human TIGIT, full length, expressed on transfected cells (human) (UniProt Q495A1)
T1 sequence: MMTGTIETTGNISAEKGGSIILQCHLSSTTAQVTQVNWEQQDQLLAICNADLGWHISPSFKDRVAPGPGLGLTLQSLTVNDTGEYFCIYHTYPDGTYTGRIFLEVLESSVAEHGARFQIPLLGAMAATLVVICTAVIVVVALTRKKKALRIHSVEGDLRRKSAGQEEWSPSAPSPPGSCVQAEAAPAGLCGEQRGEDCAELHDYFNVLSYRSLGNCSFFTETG
Test: flow cytometry on transfected cells

| MFI at 100 nM | Substance |
| --- | --- |
| 4320 | CD155 variant S52L, L104E IgV-Fc (from UniProt P15151 24-139) (Fc fusion) |
| 4400 | CD155 variant S52R IgV-Fc (from UniProt P15151 24-139) (Fc fusion) |

Biological target: CD96, expressed on transfected cells (UniProt P40200)
Test: flow cytometry on transfected cells

| MFI at 100 nM | Substance |
| --- | --- |
| 1830 | CD155 variant S52L, L104E IgV-Fc (from UniProt P15151 24-139) (Fc fusion) |
| 4850 | CD155 variant S52R IgV-Fc (from UniProt P15151 24-139) (Fc fusion) |

Biological target: CD112R, expressed on transfected cells (human) (UniProt Q6DKI7)
Sequence (Q6DKI7 whole entry): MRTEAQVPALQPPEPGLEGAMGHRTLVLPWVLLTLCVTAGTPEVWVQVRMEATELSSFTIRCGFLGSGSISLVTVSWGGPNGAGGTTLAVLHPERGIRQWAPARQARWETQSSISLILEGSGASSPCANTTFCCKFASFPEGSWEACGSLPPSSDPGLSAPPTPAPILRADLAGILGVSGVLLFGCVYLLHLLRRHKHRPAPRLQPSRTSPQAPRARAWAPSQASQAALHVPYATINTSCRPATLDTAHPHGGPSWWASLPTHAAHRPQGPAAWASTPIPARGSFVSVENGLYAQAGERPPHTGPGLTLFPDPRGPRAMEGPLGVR
Test: flow cytometry on transfected cells

| MFI at 100 nM | Substance |
| --- | --- |
| 2740 | CD155 variant S52R IgV-Fc (from UniProt P15151 24-139) (Fc fusion) |

Biological target: T2, human CD226, full length, expressed on transfected cells (human) (UniProt Q15762)
T2 sequence: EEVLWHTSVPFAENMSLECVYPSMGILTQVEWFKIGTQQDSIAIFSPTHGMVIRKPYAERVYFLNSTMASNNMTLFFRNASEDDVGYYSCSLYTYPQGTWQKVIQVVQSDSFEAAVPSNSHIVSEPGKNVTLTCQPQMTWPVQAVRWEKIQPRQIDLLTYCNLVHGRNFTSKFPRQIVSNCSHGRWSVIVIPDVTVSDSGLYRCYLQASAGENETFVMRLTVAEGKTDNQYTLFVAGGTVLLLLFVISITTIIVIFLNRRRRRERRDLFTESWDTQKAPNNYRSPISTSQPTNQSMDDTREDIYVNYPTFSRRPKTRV
Test: flow cytometry on transfected cells

| MFI at 100 nM | Substance |
| --- | --- |
| 2210 | CD155 variant S52L, L104E IgV-Fc (from UniProt P15151 24-139) (Fc fusion) |

Biological target: human CD28, full length, on transfected HEK293 cells (human) (UniProt P10747)
Test: flow cytometry, Fc fusion at 66.6 nM on HEK293 cells transfected with CD28

| Substance | MFI at 66.6 nM |
| --- | --- |
| CD80 variant IgV-Fc A71D/L72V/E95K (from UniProt P33681 35-141) (Fc fusion) | 6310 MFI |
| CD80 variant IgV-Fc V22L/E35G/A71D/L72P (from UniProt P33681 35-141) (Fc fusion) | 8150 MFI |
| CD80 variant IgV-Fc E35D (from UniProt P33681 35-141) (Fc fusion) | 3450 MFI |
| CD80 variant IgV-Fc E35D/M43I/A71D (from UniProt P33681 35-141) (Fc fusion) | 6370 MFI |
| CD80 variant IgV-Fc T13R/M42V/M47I/A71D (from UniProt P33681 35-141) (Fc fusion) | 16700 MFI |
| CD80 variant IgV-Fc Y31H/E35D/T41S/V68L/K93R/R94W (from UniProt P33681 35-141) (Fc fusion) | 2450 MFI |

Now from value to substance:

| MFI at 66.6 nM | Substance |
| --- | --- |
| 7410 MFI | CD80 variant IgV-Fc A12T/E24D/E35D/D46V/I61V/L72P/E95V (from UniProt P33681 35-141) (Fc fusion) |
| 11200 MFI | CD80 variant IgV-Fc E35D/I67L/A71D (from UniProt P33681 35-141) (Fc fusion) |
| 16800 MFI | CD80 variant IgV-Fc D46E/A71D (from UniProt P33681 35-141) (Fc fusion) |
| 8860 MFI | CD80 variant IgV-Fc H18Y/A71D/L72P/E88V (from UniProt P33681 35-141) (Fc fusion) |
| 3700 MFI | CD80 variant IgV-Fc E35G/K54E/A71D/L72P (from UniProt P33681 35-141) (Fc fusion) |
| 15000 MFI | CD80 variant IgV-Fc E35D/A71D (IgV SEQ ID NO:622) (from UniProt P33681 35-141) (Fc fusion) |
| 15100 MFI | CD80 variant IgV-Fc V20I/M47V/A71D (from UniProt P33681 35-141) (Fc fusion) |

Biological target: human PD-L1, full length, on transfected HEK293 cells (human) (UniProt Q9NZQ7)
Sequence (Q9NZQ7 19-290 limits assumed): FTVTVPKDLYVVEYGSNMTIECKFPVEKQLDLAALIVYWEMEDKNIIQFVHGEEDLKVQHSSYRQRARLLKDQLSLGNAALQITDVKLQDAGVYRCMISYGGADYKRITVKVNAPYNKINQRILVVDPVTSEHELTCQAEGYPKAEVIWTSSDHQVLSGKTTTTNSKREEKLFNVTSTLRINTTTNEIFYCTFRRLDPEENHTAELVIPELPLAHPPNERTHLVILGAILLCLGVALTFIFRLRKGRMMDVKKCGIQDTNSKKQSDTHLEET
Test: flow cytometry, Fc fusion at 22.2 nM on HEK293 cells transfected with PD-L1

| Substance | MFI at 22.2 nM |
| --- | --- |
| CD80 variant IgV-Fc E35D/M47I/L70M (from UniProt P33681 35-141) (Fc fusion) | 49100 MFI |
| CD80 variant IgV-Fc A71D/L72V/E95K (from UniProt P33681 35-141) (Fc fusion) | 8420 MFI |
| CD80 variant IgV-Fc V22L/E35G/A71D/L72P (from UniProt P33681 35-141) (Fc fusion) | 1400 MFI |
| CD80 variant IgV-Fc E35D (from UniProt P33681 35-141) (Fc fusion) | 25500 MFI |
| CD80 variant IgV-Fc E35D/M43I/A71D (from UniProt P33681 35-141) (Fc fusion) | 27300 MFI |
| CD80 variant IgV-Fc T13R/M42V/M47I/A71D (from UniProt P33681 35-141) (Fc fusion) | 1870 MFI |
| CD80 variant IgV-Fc E35D/A71D/L72V (from UniProt P33681 35-141) (Fc fusion) | 13100 MFI |
| CD80 variant IgV-Fc Y31H/E35D/T41S/V68L/K93R/R94W (from UniProt P33681 35-141) (Fc fusion) | 18900 MFI |

The next lines start with the values.

| MFI at 22.2 nM | Substance |
| --- | --- |
| 1220 MFI | CD80 variant IgV-Fc A12T/E24D/E35D/D46V/I61V/L72P/E95V (from UniProt P33681 35-141) (Fc fusion) |
| 9350 MFI | CD80 variant IgV-Fc E35D/I67L/A71D (from UniProt P33681 35-141) (Fc fusion) |
| 22800 MFI | CD80 variant IgV-Fc D46E/A71D (from UniProt P33681 35-141) (Fc fusion) |
| 1080 MFI | CD80 variant IgV-Fc H18Y/A71D/L72P/E88V (from UniProt P33681 35-141) (Fc fusion) |
| 1580 MFI | CD80 variant IgV-Fc E35G/K54E/A71D/L72P (from UniProt P33681 35-141) (Fc fusion) |
| 13800 MFI | CD80 variant IgV-Fc E35D/A71D (IgV SEQ ID NO:622) (from UniProt P33681 35-141) (Fc fusion) |
| 9710 MFI | CD80 variant IgV-Fc V20I/M47V/A71D (from UniProt P33681 35-141) (Fc fusion) |

Biological target: PD-L1 (human) (UniProt Q9NZQ7)
Sequence (Q9NZQ7 19-290 limits assumed): as above
Test: flow cytometry on HEK293 cells transfected with PD-L1

| MFI at 22.2 nM | Substance |
| --- | --- |
| 5890 MFI | CD80 IgV-Fc I30V/T57I/L70P/A71D/A91T (from UniProt P33681 35-141) (Fc fusion) |
| 8240 MFI | CD80 IgV-Fc Q27H/M43I/A71D/R73S (from UniProt P33681 35-141) (Fc fusion) |
